{"source": "patent US20060142193A1", "about": "“Selective inhibition of rock1 in cardiac therapy” (BAYLOR COLLEGE OF MEDICINE, priority 2004, published 2006)", "molecules": {"B1": {"name": "ROCK1Δ1: C-terminally truncated mutant (1-1080) of ROCK1, constitutively active, mimics caspase 3 cleaved fragment (protein, UniProt Q13464 1-1080, looked up, fragment)", "chain": "MSTGDSFETRFEKMDNLLRDPKSEVNSDCLLDGLDALVYDLDFPALRKNKNIDNFLSRYKDTINKIRDLRMKAEDYEVVKVIGRGAFGEVQLVRHKSTRKVYAMKLLSKFEMIKRSDSAFFWEERDIMAFANSPWVVQLFYAFQDDRYLYMVMEYMPGGDLVNLMSNYDVPEKWARFYTAEVVLALDAIHSMGFIHRDVKPDNMLLDKSGHLKLADFGTCMKMNKEGMVRCDTAVGTPDYISPEVLKSQGGDGYYGRECDWWSVGVFLYEMLVGDTPFYADSLVGTYSKIMNHKNSLTFPDDNDISKEAKNLICAFLTDREVRLGRNGVEEIKRHLFFKNDQWAWETLRDTVAPVVPDLSSDIDTSNFDDLEEDKGEEETFPIPKAFVGNQLPFVGFTYYSNRRYLSSANPNDNRTSSNADKSLQESLQKTIYKLEEQLHNEMQLKDEMEQKCRTSNIKLDKIMKELDEEGNQRRNLESTVSQIEKEKMLLQHRINEYQRKAEQENEKRRNVENEVSTLKDQLEDLKKVSQNSQLANEKLSQLQKQLEEANDLLRTESDTAVRLRKSHTEMSKSISQLESLNRELQERNRILENSKSQTDKDYYQLQAILEAERRDRGHDSEMIGDLQARITSLQEEVKHLKHNLEKVEGERKEAQDMLNHSEKEKNNLEIDLNYKLKSLQQRLEQEVNEHKVTKARLTDKHQSIEEAKSVAMCEMEKKLKEEREAREKAENRVVQIEKQCSMLDVDLKQSQQKLEHLTGNKERMEDEVKNLTLQLEQESNKRLLLQNELKTQAFEADNLKGLEKQMKQEINTLLEAKRLLEFELAQLTKQYRGNEGQMRELQDQLEAEQYFSTLYKTQVKELKEEIEEKNRENLKKIQELQNEKETLATQLDLAETKAESEQLARGLLEEQYFELTQESKKAASRNRQEITDKDHTVSRLEEANSMLTKDIEILRRENEELTEKMKKAEEEYKLEKEEEISNLKAAFEKNINTERTLKTQAVNKLAEIMNRKDFKIDRKKANTQDLRKKEKENRKLQLELNQEREKFNQMVVKHQKELNDMQAQLVEECAHRNELQMQL"}, "B2": {"name": "full length ROCK1: full length human ROCK-1 expressed from pCAG-ROCK-1 (protein, UniProt Q13464 1-1354, looked up)", "chain": "MSTGDSFETRFEKMDNLLRDPKSEVNSDCLLDGLDALVYDLDFPALRKNKNIDNFLSRYKDTINKIRDLRMKAEDYEVVKVIGRGAFGEVQLVRHKSTRKVYAMKLLSKFEMIKRSDSAFFWEERDIMAFANSPWVVQLFYAFQDDRYLYMVMEYMPGGDLVNLMSNYDVPEKWARFYTAEVVLALDAIHSMGFIHRDVKPDNMLLDKSGHLKLADFGTCMKMNKEGMVRCDTAVGTPDYISPEVLKSQGGDGYYGRECDWWSVGVFLYEMLVGDTPFYADSLVGTYSKIMNHKNSLTFPDDNDISKEAKNLICAFLTDREVRLGRNGVEEIKRHLFFKNDQWAWETLRDTVAPVVPDLSSDIDTSNFDDLEEDKGEEETFPIPKAFVGNQLPFVGFTYYSNRRYLSSANPNDNRTSSNADKSLQESLQKTIYKLEEQLHNEMQLKDEMEQKCRTSNIKLDKIMKELDEEGNQRRNLESTVSQIEKEKMLLQHRINEYQRKAEQENEKRRNVENEVSTLKDQLEDLKKVSQNSQLANEKLSQLQKQLEEANDLLRTESDTAVRLRKSHTEMSKSISQLESLNRELQERNRILENSKSQTDKDYYQLQAILEAERRDRGHDSEMIGDLQARITSLQEEVKHLKHNLEKVEGERKEAQDMLNHSEKEKNNLEIDLNYKLKSLQQRLEQEVNEHKVTKARLTDKHQSIEEAKSVAMCEMEKKLKEEREAREKAENRVVQIEKQCSMLDVDLKQSQQKLEHLTGNKERMEDEVKNLTLQLEQESNKRLLLQNELKTQAFEADNLKGLEKQMKQEINTLLEAKRLLEFELAQLTKQYRGNEGQMRELQDQLEAEQYFSTLYKTQVKELKEEIEEKNRENLKKIQELQNEKETLATQLDLAETKAESEQLARGLLEEQYFELTQESKKAASRNRQEITDKDHTVSRLEEANSMLTKDIEILRRENEELTEKMKKAEEEYKLEKEEEISNLKAAFEKNINTERTLKTQAVNKLAEIMNRKDFKIDRKKANTQDLRKKEKENRKLQLELNQEREKFNQMVVKHQKELNDMQAQLVEECAHRNELQMQLASKESDIEQLRAKLLDLSDSTSVASFPSADETDGNLPESRIEGWLSVPNRGNIKRYGWKKQYVVVSSKKILFYNDEQDKEQSNPSMVLDIDKLFHVRPVTQGDVYRAETEEIPKIFQILYANEGECRKDVEMEPVQQAEKTNFQNHKGHEFIPTLYHFPANCDACAKPLWHVFKPPPALECRRCHVKCHRDHLDKKEDLICPCKVSYDVTSARDMLLLACSQDEQKKWVTHLVKKIPKNPPSGFVRASPRTLSTRSTANQSFRKVVKNTSGKTS", "modifications": "full-length"}}, "key": {"caspase 3": {"tested_on": "caspase 3", "assay": "Caspase 3 activation in transfected neonatal rat cardiomyocytes (pCaspase3-sensor)", "type": "cell-based", "conditions": "overexpression vs control plasmid", "description": "To determine whether ROCK1 activation by caspase 3 cleavage is able to activate the caspase cascade, thereby constituting an amplification loop of apoptotic responses, the present inventors transfected rat neonatal cardiomyocytes with a plasmid encoding a C-terminally truncated mutant (1-1080) of ROCK1 (ROCK1Δ1) that corresponds closely to the fragment generated by caspase 3 cleavage (1-1113), and a second plasmid, pCaspase3-sensor encoding a fluorescent (EYFP) fusion protein (FIG. 9A). […] Caspase 3 activity in the transfected myocytes was monitored by counting the number of transfected cells with nuclear localization of fluorescent fusion protein.\nApoptosis assay and immunofluorescence analysis. Apoptosis was evaluated using caspase 3 activity and poly(ADP-ribose) polymerase (PARP) cleavage with Western blot in human and mouse heart tissues. With regard to apoptotic cultured neonatal cardiomyocytes, a caspase 3 sensor (BD Biosciences) was introduced to detect the onset of caspase 3 activity (FIG. 9). The vector encodes EYFP (enhanced yellow fluorescent protein) fused with NES (nuclear export signal) and NLS (nuclear localization signal). A caspase 3 specific cleavage site is located between EYFP and NES. […] The quantification was performed by counting the number of transfected cells with the nuclear localization of fluorescent fusion protein over the total transfected cells. […]"}, "phospho-AKT (pAKT)": {"tested_on": "phospho-AKT (pAKT)", "assay": "phospho-AKT level in human HEK cells (Western blot)", "type": "cell-based", "conditions": "transfected HEK cells", "description": "(§1) To further characterize the mechanism involved in this caspase activation, the present inventors transfected ROCKΔ1 in human HEK cells. […] Since AKT is activated by PI3K, PTEN acts as the upstream PI3K inhibitor. In specific embodiments of the invention, the repression of AKT activity caused by ROCKΔ1 may contribute to its pro-apoptotic effect through the increase in PTEN activity. […] Meanwhile, the decreased level of pAKT by ROCKΔ1 was reverted by blocking PTEN expression. Furthermore, the pAKT level was higher than the control level (FIG. 22D), which further supported this specific embodiment.\nCell culture, plasmid constructs, and recombinant adenoviruses. Neonatal rat cardiomyocytes were isolated and cultured in DMEM/F12 medium (1:1) with 10% horse serum (DF10); cells were ready for transfection or virus infection 40 hours after plating. For immunostaining, cells were cultured on pre-coated (with 0.2% gelatin) coverslips. Transfections were performed using LipofectAMINE 2000 (Invitrogen) with Opti-MEM I Reduced Serum Medium (Invitrogen). After 6 hr or O/N, cells were cultured in DF10. With human embryonic kidney (HEK) A293T cells, cells were cultured in DMEM with 10% fetal bovine serum. […]\nWestern blot and Malachite green assay. […] PTEN activity was evaluated by Malachite green assay (Upstate). […]"}, "SRF": {"target": "T1, SRF (Homo sapiens, UniProt P11831)", "T1 sequence (P11831 1-508)": "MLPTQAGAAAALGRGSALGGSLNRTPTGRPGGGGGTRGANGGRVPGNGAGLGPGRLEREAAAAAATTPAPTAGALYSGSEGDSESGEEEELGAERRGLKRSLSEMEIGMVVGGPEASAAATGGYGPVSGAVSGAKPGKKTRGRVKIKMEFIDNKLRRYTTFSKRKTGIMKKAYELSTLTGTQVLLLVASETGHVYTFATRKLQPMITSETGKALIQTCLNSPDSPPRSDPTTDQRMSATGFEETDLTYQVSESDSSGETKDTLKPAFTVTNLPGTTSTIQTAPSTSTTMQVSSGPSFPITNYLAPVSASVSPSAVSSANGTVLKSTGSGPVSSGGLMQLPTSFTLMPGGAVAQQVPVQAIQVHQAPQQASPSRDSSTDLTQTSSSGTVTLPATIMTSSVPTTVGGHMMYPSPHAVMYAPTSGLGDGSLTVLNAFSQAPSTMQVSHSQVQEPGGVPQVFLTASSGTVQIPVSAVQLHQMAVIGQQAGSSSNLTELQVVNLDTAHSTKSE", "assay": "SRF cleavage by active caspase 3 in vitro in presence or absence of ROCK1Δ1", "type": "biochemical", "conditions": "in the presence of active ROCK1", "experimental": "Equal amounts of SRF were incubated with active caspase 3 in the presence or absence of ROCK1Δ1."}, "PTEN": {"tested_on": "PTEN", "assay": "PTEN activity by Malachite green assay in human HEK cells", "type": "cell-based", "conditions": "transfected HEK cells", "description": "as §1\nWestern blot and Malachite green assay. Anti-ROCK-1, caspase 3, PARP, His, α-actin antibodies (Santa Cruz), anti-phospho-AKTser473 (Cell Signaling) and anti-RTEN (Upstate) were purchased. Protein samples for Western blot were prepared and separated as described earlier (Chang et al., 2000). Even loadings were confirmed by Ponceau staining and antibody probed for actin. PTEN activity was evaluated by Malachite green assay (Upstate). 500 μg of cell lysate protein was used for immunoprecipitation."}}}
{"molecule": "B1", "values": [{"measurement": "caspase 3 activation (nuclear localization of EYFP fusion protein)", "setting": "caspase 3", "result": "induced significant caspase 3 activation"}, {"measurement": "phospho-AKT (pAKT) level", "setting": "phospho-AKT (pAKT)", "result": "decreased"}, {"measurement": "full-length SRF level after incubation with active caspase 3", "setting": "SRF", "result": "markedly decreased"}, {"measurement": "PTEN activity", "setting": "PTEN", "result": "increased"}]}
{"molecule": "B2", "values": [{"measurement": "caspase 3 activation (nuclear localization of EYFP fusion protein)", "setting": "caspase 3", "result": "no significant effect"}, {"measurement": "PTEN activity", "setting": "PTEN", "result": "not found"}]}
